The target in this test is T1, amino-terminally FLAG-tagged human p75 (human, UniProt P08138 29-427).
T1 construct: also called FLAG-tagged p75; FLAG-p75; not shown: FLAG tag at the amino terminus
T1 sequence: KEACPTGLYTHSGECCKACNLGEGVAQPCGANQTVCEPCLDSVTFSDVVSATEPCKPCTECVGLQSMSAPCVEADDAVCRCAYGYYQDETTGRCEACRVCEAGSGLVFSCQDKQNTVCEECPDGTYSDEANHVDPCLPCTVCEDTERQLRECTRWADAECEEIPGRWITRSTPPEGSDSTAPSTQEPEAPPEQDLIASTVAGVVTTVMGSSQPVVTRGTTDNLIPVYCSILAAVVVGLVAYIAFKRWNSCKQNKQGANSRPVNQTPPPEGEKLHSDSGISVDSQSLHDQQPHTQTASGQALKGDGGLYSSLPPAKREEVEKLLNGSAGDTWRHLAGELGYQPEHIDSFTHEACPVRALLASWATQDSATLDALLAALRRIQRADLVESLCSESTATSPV
Description: competition: Pep5 at several concentrations against 1 uM GST-Rho GDI for immunoprecipitated p75.

B1: Pep5 (peptide)
peptide: CFFRGGFFNHNPRYC
notes: Chemically synthesized 15-residue peptide; also called peptide ligand to the p75 HD
Turning to B1, the binding result is listed as “binds”.

Values taken from patent US20040191240A1 (published 2004).
